Test system: not listed separately
Experiment: SAR16 (16H7) standalone and in combination with dulaglutide in DIO NASH cynomolgus monkeys
Type: in vivo, Cynomolgus monkey (Macaca fascicularis)
Settings: DIO NASH cynomolgus monkeys
Method: Both were tested as single administration and in combination of both in the most relevant animal model that reflects the intended human population. Thus, the pharmacokinetic and pharmacodynamics of varying doses of the compounds were explored in the high-fat diet-induced obese and insulin resistance cynomolgus monkey model with diagnosed non-alcoholic steatohepatitis (NASH), mimicking the adult human NASH insulin resistance phenotype.
Cynomolgus monkey (Macaca fascicularis) was selected as the test species of choice for more meaningful results that were translatable to humans. More than 50 male monkeys were trained to identify 40 HFD induced obese NASH monkeys for the study.
There was a run-in period during which monkeys were injected subcutaneously with vehicle every third day. Food intake (calculated as TEI) and water intake were measured daily along with twice-weekly body weight evaluation and baseline value determination for metabolic biomarkers, safety biomarkers, IV glucose tolerance test (IVGTT), liver biopsy for gene expression analysis, and profile for glucose, insulin, and plasma lipids.
For the dosing period 40 trained monkeys (n=10 per group) were selected and stratified for body weight, fasting plasma glucose (FPG), and fasting plasma insulin (FPI) and insulin response from baseline during the IVGTT. All treatments were administered subcutaneously for […]. The dosing period was designed as a four-arm, dose-ramping study, and monkeys were treated with either vehicle, SAR10, SAR16, or a combination of both SAR10 and SAR16.
(§1) The SAR10-treated monkeys were dosed every 3rd day at 60 μg/kg initiated by dose ramping (3 dose steps, week 1: 20 μg/kg, week 2: 40 μg/kg, week 3 to runout: 60 μg/kg). The SAR16-treated monkeys were dosed at 1 mg/kg on day +1, 3 mg/kg on day +16, and then repeat maintenance dose of 3 mg/kg on day +46. The Combo-treated monkey were dosed with both SAR10 and SAR16 as the same pattern of the SAR10 and SAR16 treated monkeys.
Other parameters were also measured during the study, including food intake, body fat, plasma ketone bodies, as well as blood glucose control (glucose profile, fed, fasting plasma glucose and during ivGTT). One group received the vehicle. The compounds were administered subcutaneously (SC) (12 weeks “evaluation phase” plus run-out) to obese and NASH male cynomolgus macaques (Macaca fascicularis).
as §1, with “at” for “as”

Row | Substance | body weight (in words) | food intake
1 | dulaglutide [SAR10] | Significant reductions in body weight | Reduction of food intake

Same assay, conditions: compared to the vehicle treated group

Row | Substance | fasting glucose and fed glucose levels (12:30 and 18:30) | ivGTT glucose AUC | ivGTT plasma insulin AUC
2 | dulaglutide [SAR10] | No significant change | significantly decreased | significant increase

Same assay, conditions: day +76 compared to baseline (day −27)

Row | Substance | blood glucose levels, plasma profile | insulin, plasma profile
3 | dulaglutide [SAR10] | appreciable decreases | decreased

Same assay, conditions: day +76 versus day −27

Row | Substance | HDL levels, plasma profile | T-ketones levels, plasma profile | TC and LDL levels, plasma profile | TG values, plasma profile
4 | dulaglutide [SAR10] | slightly increased | quite stable | decreased | quite stable

Same assay, conditions: measured on days +81/+82/+83/+84; DIO NASH cynomolgus monkeys

Row | Substance | liver fat fraction change (MRI)
5 | dulaglutide [SAR10] | −25.2%

Same assay, conditions: more monkeys improved compared to vehicle treated group

Row | Substance | NASH steatosis score
6 | dulaglutide [SAR10] | improved steatosis score

Molecular target: T1, human beta-Klotho (Homo sapiens, UniProt Q86Z14)
T1 sequence (Q86Z14 1-1044): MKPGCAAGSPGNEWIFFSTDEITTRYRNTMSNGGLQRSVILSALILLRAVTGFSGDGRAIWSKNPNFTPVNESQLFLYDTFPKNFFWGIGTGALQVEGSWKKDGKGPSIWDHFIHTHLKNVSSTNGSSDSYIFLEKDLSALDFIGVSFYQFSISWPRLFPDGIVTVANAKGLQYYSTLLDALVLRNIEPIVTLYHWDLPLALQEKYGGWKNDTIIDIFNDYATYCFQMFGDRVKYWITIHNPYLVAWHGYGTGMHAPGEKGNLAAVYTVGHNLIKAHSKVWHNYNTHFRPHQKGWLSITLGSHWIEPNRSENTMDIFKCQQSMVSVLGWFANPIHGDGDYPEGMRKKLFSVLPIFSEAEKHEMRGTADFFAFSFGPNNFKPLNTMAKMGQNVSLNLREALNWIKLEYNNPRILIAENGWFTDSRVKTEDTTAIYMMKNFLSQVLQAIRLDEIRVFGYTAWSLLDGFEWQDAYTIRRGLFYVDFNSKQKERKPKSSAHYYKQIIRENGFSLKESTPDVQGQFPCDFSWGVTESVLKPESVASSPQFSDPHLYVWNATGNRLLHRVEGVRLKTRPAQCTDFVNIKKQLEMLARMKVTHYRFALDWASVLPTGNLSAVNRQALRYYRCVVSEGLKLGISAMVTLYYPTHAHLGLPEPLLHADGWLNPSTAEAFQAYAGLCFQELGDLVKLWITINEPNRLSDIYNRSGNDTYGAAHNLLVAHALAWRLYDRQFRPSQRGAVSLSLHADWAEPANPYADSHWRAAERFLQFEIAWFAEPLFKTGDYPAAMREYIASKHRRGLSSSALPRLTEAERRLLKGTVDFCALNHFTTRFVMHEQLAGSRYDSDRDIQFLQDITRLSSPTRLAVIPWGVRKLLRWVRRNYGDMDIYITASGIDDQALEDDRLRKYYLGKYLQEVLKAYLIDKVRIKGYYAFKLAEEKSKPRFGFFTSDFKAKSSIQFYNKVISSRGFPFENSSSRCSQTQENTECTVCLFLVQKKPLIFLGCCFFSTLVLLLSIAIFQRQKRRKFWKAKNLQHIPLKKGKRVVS
Experiment: SPR off-rate screening of antibody mutants (human beta-Klotho captured by anti-His antibody)
Type: binding
Settings: mean, n=3
Method: Screening of antibody mutants for binding to human beta-Klotho was determined in a different SPR assay set up. Human beta-Klotho was affinity captured by an anti-His antibody (from His capture kit, GE Healthcare) that was immobilized to a series S CM5 chip (GE Healthcare) by amine reactive coupling as described above. The antibody samples were used as analytes at 50 nmol/L concentration. Association time was 240 sec and dissociation time was 300 sec. Chip surfaces were regenerated using the regeneration solution supplied with the His capture kit. The off-rates (kd) were determined using single exponential fitting in the Biacore 8K Evaluation Software version 1.1.1.7442 (GE Healthcare).

Row | koff human KLB | Substance
7 | invalid fit | Ab0199: IgG4 PE; 16H7 VL (D95E); 16H7 VH (I83T, D109E)
8 | 0.00185 s⁻¹ | Ab0212: IgG4 PE; 16H7 VL (N93E); 16H7 VH (I83T, D109Y)
9 | 0.00137 s⁻¹ | Ab0296: IgG4 PE; 16H7 VL (N25S, D50E); 16H7 VH (M34V, I83T, D109E)
10 | 0.00121 s⁻¹ | Ab0214: IgG4 PE; 16H7 VL; 16H7 VH (I83T, D109S)
11 | 0.00151 s⁻¹ | Ab0203: IgG4 PE; 16H7 VL (D50E); 16H7 VH (M34V, I83T, D109E)
12 | 0.00194 s⁻¹ | Ab0196: IgG4 PE; 16H7 VL (D50E); 16H7 VH (I83T, D109E)
13 | 0.00156 s⁻¹ | Ab0297: IgG4 PE; 16H7 VL (D49Y, D50E); 16H7 VH (M34V, I83T, D109E)
14 | 0.00167 s⁻¹ | Ab0197: IgG4 PE; 16H7 VL (D91T); 16H7 VH (I83T, D109E)
15 | 0.00084 s⁻¹ | Ab0188: IgG4 PE; 16H7 VL (D49Y); 16H7 VH (M34V, I83T)
16 | 0.00161 s⁻¹ | Ab0202: IgG4 PE; 16H7 VL (D49Y); 16H7 VH (M34V, I83T, D109E)
17 | 0.00157 s⁻¹ | Ab0295: IgG4 PE; 16H7 VL (N25S, D49Y); 16H7 VH (M34V, I83T, D109E)
18 | 0.000156 s⁻¹ | Ab0187: IgG4 PE; 16H7 VL (N25S); 16H7 VH (M34V, I83T)
19 | 0.000337 s⁻¹ | Ab0193: IgG4 PE; 16H7 VL; 16H7 VH (I83T, D109E)
20 | 0.00125 s⁻¹ | Ab0215: IgG4 PE; 16H7 VL (N25S); 16H7 VH (I83T, D109S)
21 | invalid fit | Ab0210: IgG4 PE; 16H7 VL (D50E); 16H7 VH (I83T, D109Y)
22 | invalid fit | Ab0192: IgG4 PE; 16H7 VL (D95E); 16H7 VH (M34V, I83T)
23 | 0.000104 s⁻¹ | Ab0186: IgG4 PE; 16H7 VL; 16H7 VH (M34V, I83T)
24 | invalid fit | Ab0211: IgG4 PE; 16H7 VL (D91T); 16H7 VH (I83T, D109Y)
25 | 0.000334 s⁻¹ | Ab0205: IgG4 PE; 16H7 VL (N93E); 16H7 VH (M34V, I83T, D109E)
26 | 0.00267 s⁻¹ | Ab0195: IgG4 PE; 16H7 VL (D49Y); 16H7 VH (I83T, D109E)
27 | 0.00103 s⁻¹ | Ab0309: IgG4 PE; 16H7 VL (D50E, N93E); 16H7 VH (M34V, I83T, D109E)
28 | 0.000387 s⁻¹ | Ab0189: IgG4 PE; 16H7 VL (D50E); 16H7 VH (M34V, I83T)

Row | koff human KLB | Substance
29 | 0.00011 s⁻¹ | Ab0234: IgG4 PE; 16H7 VL (N93S); 16H7 VH
30 | 0.000346 s⁻¹ | Ab0198: IgG4 PE; 16H7 VL (N93E); 16H7 VH (I83T, D109E)
31 | invalid fit | Ab0220: IgG4 PE; 16H7 VL (D95E); 16H7 VH (I83T, D109S)
32 | no binding | Ab0386: IgG4 PE; 16H7 VL (D95S, W90F); 16H7 VH (M34V, F54W, I83T, D109E)
33 | invalid fit | Ab0302: IgG4 PE; 16H7 VL (D50E, D91T); 16H7 VH (M34V, I83T, D109E)
34 | 0.002 s⁻¹ | Ab0217: IgG4 PE; 16H7 VL (D50E); 16H7 VH (I83T, D109S)
35 | 0.000369 s⁻¹ | Ab0200: IgG4 PE; 16H7 VL; 16H7 VH (M34V, I83T, D109E)
36 | 0.000195 s⁻¹ | Ab0190: IgG4 PE; 16H7 VL (D91T); 16H7 VH (M34V, I83T)
37 | 0.00188 s⁻¹ | Ab0207: IgG4 PE; 16H7 VL; 16H7 VH (I83T, D109Y)
38 | 0.00118 s⁻¹ | Ab0307: IgG4 PE; 16H7 VL (D49Y, N93E); 16H7 VH (M34V, I83T, D109E)
39 | invalid fit | Ab0300: IgG4 PE; 16H7 VL (D49Y, D91T); 16H7 VH (M34V, I83T, D109E)
40 | invalid fit | Ab0209: IgG4 PE; 16H7 VL (D49Y); 16H7 VH (I83T, D109Y)
41 | 0.000336 s⁻¹ | Ab0201: IgG4 PE; 16H7 VL (N25S); 16H7 VH (M34V, I83T, D109E)
42 | 0.000915 s⁻¹ | Ab0219: IgG4 PE; 16H7 VL (N93E); 16H7 VH (I83T, D109S)
43 | 0.00133 s⁻¹ | Ab0204: IgG4 PE; 16H7 VL (D91T); 16H7 VH (M34V, I83T, D109E)
44 | invalid fit | Ab0213: IgG4 PE; 16H7 VL (D95E); 16H7 VH (I83T, D109Y)
45 | 0.000402 s⁻¹ | Ab0194: IgG4 PE; 16H7 VL (N25S); 16H7 VH (I83T, D109E)
46 | 0.0021 s⁻¹ | Ab0208: IgG4 PE; 16H7 VL (N25S); 16H7 VH (I83T, D109Y)
47 | 0.000144 s⁻¹ | Ab0191: IgG4 PE; 16H7 VL (N93E); 16H7 VH (M34V, I83T)
48 | 0.000288 s⁻¹ | Ab0306: IgG4 PE; 16H7 VL (N25S, N93E); 16H7 VH (M34V, I83T, D109E)
49 | 0.00668 s⁻¹ | Ab0218: IgG4 PE; 16H7 VL (D91T); 16H7 VH (I83T, D109S)
50 | 0.00984 s⁻¹ | Ab0216: IgG4 PE; 16H7 VL (D49Y); 16H7 VH (I83T, D109S)
